The Kd is the concentration at which binding is half-saturated. As usually defined, the koff is the rate constant with which the complex falls apart. Usually kon stands for the rate constant with which the complex forms.

The target of assay [1] is T1, extracellular domain of human L1CAM (isoform 1) fused to a poly-histidine tag via its carboxy terminus (human, UniProt P32004 20-1120).
T1 construct: Bought (Creative Biomart); also called L1CAM-His; huL1CAM protein
The assay is described as follows: BLI (Octet Red96e), His-tagged human L1CAM on Ni-NTA biosensors, mAb as analyte, 1:1 fit. Here is the method: (§1) Binding to L1CAM in Solution. Affinity to human L1CAM was measured by BLI using an Octet Red96e instrument. […] The data was prepared by reference well subtraction, and response curves were globally fit to a 1:1 Langmuir binding model.
On the technique in general: In BLI a coated tip is dipped into the sample, and binding shifts an interference pattern.

Assay [2] has as its target T2, soluble mouse L1CAM (monomer), His-tagged (mouse, UniProt P11627 20-1123, limits assumed).
T2 construct: read as mouse
Nature of the assay: BLI (Octet Red96e), His-tagged mouse L1CAM on Ni-NTA biosensors, mAb as analyte, 1:1 fit. Here is the method: Cross-reactivity to Mouse L1CAM. Affinity to mouse L1CAM was measured by BLI using an Octet Red96e instrument. […] The data was prepared by reference well subtraction, and response curves were globally fit to a 1:1 Langmuir binding model.

Assay [3] concerns the target T1, extracellular domain of human L1CAM …. The assay is described as follows: summary table; binding to soluble human L1CAM (monomer). Here is the method:
as §1

Assay [4] addresses T3, soluble cynomolgus monkey L1CAM, His-tagged, monomeric (cynomolgus monkey, UniProt A0A2K5URB5 20-1120).
T3 construct: also called cyL1CAM protein; cynomolgus L1CAM-His
The assay is described as follows: BLI, cynomolgus against human L1CAM-His. As for the experimental part:
(§2) Cross-reactivity to Cynomolgus Monkey L1CAM. Affinity to cynomolgus L1CAM was measured by BLI using an Octet Red96e instrument. […] The data was prepared by reference well subtraction, and response curves were globally fit to a 1:1 Langmuir binding model.

In assay [5] the target is T3, soluble cynomolgus monkey L1CAM, …. The assay is described as follows: BLI (Octet Red96e), His-tagged cynomolgus L1CAM on Ni-NTA biosensors, mAb as analyte, 1:1 fit. Here is the method:
as §2

T1 sequence (P32004 20-1120): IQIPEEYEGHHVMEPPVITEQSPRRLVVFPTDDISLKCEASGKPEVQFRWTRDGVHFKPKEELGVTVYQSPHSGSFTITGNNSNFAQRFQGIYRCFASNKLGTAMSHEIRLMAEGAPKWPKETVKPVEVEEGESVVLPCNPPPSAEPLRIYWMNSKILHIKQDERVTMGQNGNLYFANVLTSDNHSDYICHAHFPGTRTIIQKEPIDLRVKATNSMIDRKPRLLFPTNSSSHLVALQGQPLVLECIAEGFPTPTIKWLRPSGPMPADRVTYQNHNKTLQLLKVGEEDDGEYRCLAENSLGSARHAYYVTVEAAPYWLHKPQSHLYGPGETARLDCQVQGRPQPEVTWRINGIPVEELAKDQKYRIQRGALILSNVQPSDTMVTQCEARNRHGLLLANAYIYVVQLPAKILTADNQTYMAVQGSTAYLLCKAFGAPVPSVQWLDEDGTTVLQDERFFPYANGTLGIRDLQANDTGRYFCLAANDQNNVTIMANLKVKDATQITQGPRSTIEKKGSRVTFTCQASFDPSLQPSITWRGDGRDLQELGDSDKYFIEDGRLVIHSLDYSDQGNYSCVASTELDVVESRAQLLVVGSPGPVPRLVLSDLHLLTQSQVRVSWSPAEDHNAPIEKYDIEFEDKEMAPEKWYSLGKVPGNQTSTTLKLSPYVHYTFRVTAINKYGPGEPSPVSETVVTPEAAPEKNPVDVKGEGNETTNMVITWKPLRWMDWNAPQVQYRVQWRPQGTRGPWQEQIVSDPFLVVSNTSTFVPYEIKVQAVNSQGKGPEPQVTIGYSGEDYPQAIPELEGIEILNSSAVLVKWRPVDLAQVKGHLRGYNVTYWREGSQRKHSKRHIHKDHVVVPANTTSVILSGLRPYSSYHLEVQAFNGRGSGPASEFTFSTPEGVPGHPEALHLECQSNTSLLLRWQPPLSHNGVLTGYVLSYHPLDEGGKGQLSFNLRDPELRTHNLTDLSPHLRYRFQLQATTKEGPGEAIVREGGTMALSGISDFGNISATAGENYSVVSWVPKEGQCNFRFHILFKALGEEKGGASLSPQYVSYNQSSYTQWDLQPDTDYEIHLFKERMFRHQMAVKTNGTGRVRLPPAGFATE
T2 sequence (P11627 20-1123 limits assumed): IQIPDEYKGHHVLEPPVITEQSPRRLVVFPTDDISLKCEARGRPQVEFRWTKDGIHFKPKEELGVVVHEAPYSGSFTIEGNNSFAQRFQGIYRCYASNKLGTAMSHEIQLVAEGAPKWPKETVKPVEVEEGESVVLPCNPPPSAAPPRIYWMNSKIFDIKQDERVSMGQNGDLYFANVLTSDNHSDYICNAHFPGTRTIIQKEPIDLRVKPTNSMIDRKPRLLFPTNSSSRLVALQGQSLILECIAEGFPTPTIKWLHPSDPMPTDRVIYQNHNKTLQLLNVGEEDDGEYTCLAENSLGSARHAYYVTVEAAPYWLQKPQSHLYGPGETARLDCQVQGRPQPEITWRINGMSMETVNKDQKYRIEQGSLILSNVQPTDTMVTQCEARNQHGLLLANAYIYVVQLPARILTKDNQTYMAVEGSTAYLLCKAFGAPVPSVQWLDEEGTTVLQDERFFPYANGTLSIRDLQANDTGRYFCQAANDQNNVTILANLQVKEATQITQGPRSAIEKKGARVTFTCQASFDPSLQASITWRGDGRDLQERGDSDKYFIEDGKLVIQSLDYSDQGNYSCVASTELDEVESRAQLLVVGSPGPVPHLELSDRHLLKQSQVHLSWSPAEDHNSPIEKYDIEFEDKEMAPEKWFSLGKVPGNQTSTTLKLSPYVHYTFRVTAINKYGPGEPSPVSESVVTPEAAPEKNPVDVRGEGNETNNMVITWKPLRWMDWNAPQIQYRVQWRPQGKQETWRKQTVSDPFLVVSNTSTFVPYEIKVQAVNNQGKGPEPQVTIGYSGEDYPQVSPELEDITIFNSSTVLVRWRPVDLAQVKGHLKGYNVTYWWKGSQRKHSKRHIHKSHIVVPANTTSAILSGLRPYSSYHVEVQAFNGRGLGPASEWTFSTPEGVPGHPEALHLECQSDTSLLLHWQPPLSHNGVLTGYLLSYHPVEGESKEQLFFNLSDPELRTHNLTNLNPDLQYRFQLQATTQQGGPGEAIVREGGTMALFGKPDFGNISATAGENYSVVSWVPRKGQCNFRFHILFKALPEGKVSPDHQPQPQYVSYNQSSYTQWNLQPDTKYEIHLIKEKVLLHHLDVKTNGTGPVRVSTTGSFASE

B1: TDI-Y-005 (antibody, human IgG1, kappa, V domains shown)
VH: EVQMVESGGGLVQPGGSLRLSCAAPGFIFSSYNMNWVRQAPGKGLEWVSYISSSSSTTYYADSVKGRFTISRDNAKNSLYLQMNSLRDEDTAVYYCASLYSGYDYYYYYGMDVWGQGTTVTVSS
VL: DIVMTQTPLSSPVSLGQPASISCRSSQSLVHSDGNTYLSWLQQRPGQPPRVLIYKISKRFSGVPDRFSGSGAGTDFTLKISRVEAEDVGVYYCMQATQFPFTFGPGTKVDIKR
notes: Human IgG1, kappa; also called human 14A10 mAb; fully human 14A10 mAb
Consider B1, for which the Kd in assay [1] was found to be 4.3 nM; in assay [2], 34 nM; in assay [3], 4.3 nM; in assay [5] it was 1.3 nM. In addition, the koff in assay [1] came out at 0.00014 s⁻¹; in assay [2], 0.0011 s⁻¹; in assay [3], 0.00014 s⁻¹; in assay [5] it was 0.00012 s⁻¹. Moreover, the kon in assay [1] was determined as 33000 M⁻¹ s⁻¹; in assay [2], 31000 M⁻¹ s⁻¹; in assay [3], 33000 M⁻¹ s⁻¹; in assay [5], 93000 M⁻¹ s⁻¹. Besides, the “fold difference of KD against human L1CAM” value in assay [4] was at most 3.3 fold.

The values above are taken from patent publication US20250340636A1 (Memorial Sloan Kettering, published 2025).
